Patent US20240287163A1 (Chugai, published 2024)
Residue numbers refer to the chain shown, from its start.

What was measured:
Assay in all cases: SPR (Biacore T200), antibody captured on protein L, FcγR injected
[1] = biological target: T1, cynomolgus Fc gamma receptor Ia (cynomolgus monkey, UniProt P12314 16-288 (human entry))
T1 construct: also called cyFcγRIa
T1 chain: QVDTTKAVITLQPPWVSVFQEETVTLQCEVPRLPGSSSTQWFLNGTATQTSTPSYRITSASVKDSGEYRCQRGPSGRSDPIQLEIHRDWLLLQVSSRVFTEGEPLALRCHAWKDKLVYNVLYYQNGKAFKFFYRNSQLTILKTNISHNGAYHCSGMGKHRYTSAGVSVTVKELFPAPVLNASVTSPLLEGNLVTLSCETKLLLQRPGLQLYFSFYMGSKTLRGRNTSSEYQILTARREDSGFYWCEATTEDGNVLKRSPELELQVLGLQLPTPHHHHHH
Protocol: (§1) The binding property of each sample to FcγRs at pH7.4 was determined at 25° C. using BIACORE® T200 instrument (Cytiva). First, protein L (BioVision) was immobilized onto all of the flow cells of a CM4 sensor chip using Amine Coupling Kit, type2 (Cytiva). 50 mM phosphate buffer (pH7.4) containing 150 mM NaCl, 0.05% Tween® 20 was used as the running buffer, and antibodies with the binding response of which were prepared to 500 RU or 2000 RU were captured on the sensor surface. Human and monkey FcγRs diluted with the running buffer were injected thereto and the amount bound with the antibodies was measured. hFcγRIa and cyFcγRIa were diluted to 8 nM, and the rest were diluted to 1000 nM. The sensor surface was regenerated every cycle, using 10 mM glycine hydrochloride solution, pH1.5 (prepared in-house).

[2] = biological target: T2, cynomolgus Fc gamma receptor IIb (cynomolgus monkey)
T2 construct: also called cyFcγRIIb
T2 chain: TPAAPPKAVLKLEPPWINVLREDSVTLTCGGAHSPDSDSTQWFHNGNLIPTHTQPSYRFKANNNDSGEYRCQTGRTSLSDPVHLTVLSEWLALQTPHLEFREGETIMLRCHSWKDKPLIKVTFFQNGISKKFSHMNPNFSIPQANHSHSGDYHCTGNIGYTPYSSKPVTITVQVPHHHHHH
Protocol: as §1

[3] = biological target: T3, cynomolgus Fc gamma receptor IIa2 (cynomolgus monkey)
T3 construct: also called cyFcγRIIa2
T3 chain: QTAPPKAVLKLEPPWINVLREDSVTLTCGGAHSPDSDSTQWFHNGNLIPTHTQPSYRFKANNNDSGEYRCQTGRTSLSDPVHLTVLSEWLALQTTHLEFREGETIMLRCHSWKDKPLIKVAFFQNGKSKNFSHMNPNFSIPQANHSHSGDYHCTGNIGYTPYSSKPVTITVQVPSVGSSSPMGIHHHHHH
Protocol: as §1

[4] = biological target: T4, cynomolgus Fc gamma receptor IIa1 (cynomolgus monkey)
T4 construct: also called cyFcγRIIa1
T4 chain: T3 chain with T95P, A121T, K127I, S128A, N130K, N135D, Q142R
Protocol: as §1

[5] = biological target: T5, cynomolgus Fc gamma receptor IIIa (S) (cynomolgus monkey, UniProt Q8SPW2 21-206 at identity 1.00))
T5 construct: also called cyFcγRIIIa(S)
T5 chain: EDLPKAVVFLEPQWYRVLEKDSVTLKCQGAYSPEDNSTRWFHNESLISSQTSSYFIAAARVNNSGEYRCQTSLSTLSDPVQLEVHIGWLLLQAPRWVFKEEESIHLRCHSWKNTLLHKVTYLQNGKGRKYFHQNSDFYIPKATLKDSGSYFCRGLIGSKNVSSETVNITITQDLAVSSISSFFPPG
Protocol: as §1

[6] = biological target: T6, cynomolgus Fc gamma receptor IIa3 (cynomolgus monkey)
T6 construct: also called cyFcγRIIa3
T6 chain: T3 chain with K127I, N130K, H133P, Q142R
Protocol: as §1

[7] = biological target: T7, cynomolgus Fc gamma receptor IIIa (R) (cynomolgus monkey, UniProt Q8SPW2 17-208)
T7 construct: also called cyFcγRIIIa(R)
T7 sequence (Q8SPW2 other isoform, or with tags, fused parts or gaps): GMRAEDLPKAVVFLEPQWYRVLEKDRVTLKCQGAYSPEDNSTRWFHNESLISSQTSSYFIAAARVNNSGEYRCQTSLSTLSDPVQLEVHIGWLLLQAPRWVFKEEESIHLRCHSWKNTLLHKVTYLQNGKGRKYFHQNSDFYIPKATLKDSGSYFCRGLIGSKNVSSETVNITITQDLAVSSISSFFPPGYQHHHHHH
Protocol: as §1

binding result [1]: no binding (tested: 8 nM)
binding result [2]: no binding (tested: 1000 nM)
binding result [3]: no binding (tested: 1000 nM)
binding result [4]: no binding (tested: 1000 nM)
binding result [5]: no binding (tested: 1000 nM)
binding result [6]: no binding (tested: 1000 nM)
binding result [7]: no binding (tested: 1000 nM)
B1: COS0637pHv2-FcgSil (antibody)
heavy: QVQLVESGGGVVQPGRSLRLSCAASGFRFSAYAMNWIRQPPGKGLEWIGLIYGKGSTFYASWAKERVTISVDTSKNQFSLKLSSVTAADTAVYYCARGRSVNYNSDFHLWGQGTLVTVSSASTKGPSVFPLAPSSKSTSGGTAALGCLVKDYFPEPVTVSWNSGALTSGVHTFPAVLQSSGLYSLSSVVTVPSSSLGTQTYICNVNHKPSNTKVDKRVEPKSCDKTHTCPPCPAPELRRGPSVFLFPPKPKDTLMISRTPEVTCVVVDVSDEDPEVKFNWYVDGVEVHNAKTKPREELYNSTYRVVSVLTVLHRDWLNGKEYKCKVSNTALPKPIEKTISKAKGQRREPQVYTLPPSREEMTKNQVSLTCLVKGFYPSDIAVEWESNGQPENNYKTTPPVLDSDGSFFLYSKLTVDKSRWQQGNVFSCSVLHEALHAHTTRKELSLSP
light: DIQMTQSPSSLSASVGDRVTITCQASQSLHDKKNLAWYQQKPGQPPKLLIYGASTLESGVPSRFSGSGSGTDFTLTISSLQPEDFATYYCQGEFSCSSADCNTFGQGTKVEIKRTVAAPSVFIFPPSDEQLKSGTASVVCLLNNFYPREAKVQWKVDNALQSGNSQESVTEQDSKDSTYSLSSTLTLSKADYEKHKVYACEVTHQGLSSPVTKSFNRGEC
notes: FcγR-silenced constant region FcgSil
